In PMC8079274, “Calmodulin influences MAPK signaling by binding KSR1” (The Journal of Biological Chemistry, 2021):

Columns and labels:
[1] = molecular target: T1, calmodulin-Sepharose (calmodulin coupled to Sepharose beads) (UniProt P0DP23 1-149); assay: pull-down; 500 ng purified His-KSR1 with 30 μl calmodulin-Sepharose or GST-Sepharose, lysis buffer B (50 mM Tris-HCl pH 7.4, 150 mM NaCl, 1% Triton-X 100) with 1 mM CaCl2, 3 h at 4 °C; blot with anti-KSR1; conditions: both partners purified
T1 construct: Calmodulin coupled to Sepharose; also called CaM; source: bought: GE Healthcare (17-0529-01), calmodulin-Sepharose beads

[2] = molecular target: T2, pure calmodulin (UniProt P0DP23 1-149); assay: pull-down; 2 μg pure calmodulin in lysis buffer B with 1 mM Ca^2+ with GST-KSR1 constructs on glutathione-Sepharose beads, 3 h at 4 °C; blot with anti-calmodulin; conditions: both partners purified
T2 construct: Pure calmodulin from Ocean Biologics; also called purified calmodulin; CaM; source: bought: Ocean Biologics

Row | binding result [1] | binding result [2] | Binder
1 | binds | – | His-tagged full-length KSR1 (kinase suppressor of Ras1) (natural protein, Kinase suppressor of Ras1 (KSR1), full length; Plasmid pTrace-His-KSR1 was a gift (Piero Crespo); the construct is not described further; also called His-KSR1; purified KSR1; source: 90% pure) MDRAALRAAAMGEKKEGGGGGAAADGGAGAAVSRALQQCGQLQKLIDISIGSLRGLRTKCSVSNDLTQQEIRTLEAKLVKYICKQQQSKLSVTPSDRTAELNSYPRFSDWLYIFNVRPEVVQEIPQELTLDALLEMDEAKAKEMLRRWGASTEECSRLQQALTCLRKVTGLGGEHKMDSGWSSTDARDSSLGPPMDMLSSLGRAGASTQGPRSISVSALPASDSPVPGLSEGLSDSCIPLHTSGRLTPRALHSFITPPTTPQLRRHAKLKPPRTPPPPSRKVFQLLPSFPTLTRSKSHESQLGNRIDDVTPMKFELPHGSPQLVRRDIGLSVTHRFSTKSWLSQVCNVCQKSMIFGVKCKHCRLKCHNKCTKEAPACRITFLPLARLRRTESVPSDINNPVDRAAEPHFGTLPKALTKKEHPPAMNLDSSSNPSSTTSSTPSSPAPFLTSSNPSSATTPPNPSPGQRDSRFSFPDISACSQAAPLSSTADSTRLDDQPKTDVLGVHEAEAEEPEAGKSEAEDDEEDEVDDLPSSRRPWRGPISRKASQTSVYLQEWDIPFEQVELGEPIGQGRWGRVHRGRWHGEVAIRLLEMDGHNQDHLKLFKKEVMNYRQTRHENVVLFMGACMNPPHLAIITSFCKGRTLHSFVRDPKTSLDINKTRQIAQEIIKGMGYLHAKGIVHKDLKSKNVFYDNGKVVITDFGLFGISGVVREERRENQLKLSHDWLCYLAPEIVREMIPGRDEDQLPFSKAADVYAFGTVWYELQARDWPFKHQPAEALIWQIGSGEGVRRVLASVSLGKEVGEILSACWAFDLQERPSFSLLMDMLERLPKLNRRLSHPGHFWKSADINSSKVMPRFERFGLGTLESGNPKM
2 | – | binds | GST-KSR1-M (amino acid residues 319–433) (domain or fragment, Vector pGEX2T-TEV; also called M-fragment; pGEX2T-TEV-KSR1-M; source: E. coli, isolated with glutathione-Sepharose beads) GSPQLVRRDIGLSVTHRFSTKSWLSQVCNVCQKSMIFGVKCKHCRLKCHNKCTKEAPACRITFLPLARLRRTESVPSDINNPVDRAAEPHFGTLPKALTKKEHPPAMNLDSSSNP
